Measurements published in PMC9105653, “Zinc and Copper Ions Induce Aggregation of Human β-Crystallins” (Molecules, 2022).

Target: the molecule itself
Assay: dynamic light scattering; 50 µM protein in 10 mM Hepes pH 8.0, 100 mM NaCl (buffer B), without metal ions; apparent RH compared with the RH predicted (HullRad) from face-en-face dimer models

B1: human βA1-crystallin (HβA1) (natural protein, UniProt P05813-2 1-198, looked up)
chain: MAQTNPTPGSLGPWKITIYDQENFQGKRMEFTSSCPNVSERSFDNVRSLKVESGAWIGYEHTSFCGQQFILERGEYPRWDAWSGSNAYHIERLMSFRPICSANHKESKMTIFEKENFIGRQWEISDDYPSLQAMGWFNNEVGSMKIQSGAWVCYQYPGYRGYQYILECDHHGGDYKHWREWGSHAQTSQIQSIRRIQQ
notes: human beta-crystallin A1, the shorter product of the gene CRYBA1 (made with betaA3 from the same gene by leaky ribosomal scanning); printed length 198 residues; source: E. coli BL21-RIL, purified (HisTrap, SUMO protease Ulp1 cleavage, second HisTrap, Q-Sepharose)
- stoichiometry N: 2

B2: human βB2-crystallin (HβB2) (natural protein)
chain: ASDHQTQAGKPQSLNPKIIIFEQENFQGHSHELNGPCPNLKETGVEKAGSVLVQAGPWVGYEQANCKGEQFVFEKGEYPRWDSWTSSRRTDSLSSLRPIKVDSQEHKIILYENPNFTGKKMEIIDDDVPSFHAHGYQEKVSSVRVQSGTWVGYQYPGYRGLQYLLEKGDYKDSSDFGAPHPQVQSVRRIRDMQWHQRGAFHPSN
notes: human beta-crystallin B2; printed length 205 residues; source: E. coli BL21-RIL, purified (HisTrap, SUMO protease Ulp1 cleavage, second HisTrap, Q-Sepharose)
- stoichiometry N: 2
